Test results reported in the supplement of paper PMC5998384.

Columns and labels:
[1] = test system: HeLa Kyoto; experiment: solubility in G1/S (NP-40 vs SDS abundance) (log2 ratio); higher = more soluble; conditions: cell cycle stage: G1/S
[2] = test system: HeLa Kyoto; experiment: melting temperature (median over replicates), in situ; higher = more thermally stable
[3] = test system: HeLa Kyoto; experiment: solubility change mitosis vs G1/S (difference of NP-40 vs SDS log2 ratios) (log2 ratio difference); higher = more soluble in mitosis
[4] = test system: HeLa Kyoto; experiment: thermal stability score vs G1/S (z-score of summed log2 fold changes over temperatures); higher = more thermally stable than in G1/S
[5] = cell cycle stage: early G1 (4.5 h after nocodazole release)
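Throughout, for melting temperature (median over replicates), in situ: HeLa Kyoto cells synchronized by double thymidine or nocodazole block, proteins quantified by TMT10plex mass spectrometry, three independent biological replicates.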
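Throughout, for solubility change mitosis vs G1/S (difference of NP-40 vs SDS log2 ratios): synchronized HeLa Kyoto cells (double thymidine block for G1/S, nocodazole release for mitosis), protein amounts in NP-40 versus SDS lysates quantified by mass spectrometry, three biological replicates.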
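Throughout, for solubility in G1/S (NP-40 vs SDS abundance): HeLa Kyoto cells arrested at G1/S by double thymidine block, proteins quantified by TMT10plex mass spectrometry in mild NP-40 versus SDS extracts, three biological replicates.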
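Throughout, for thermal stability score vs G1/S (z-score of summed log2 fold changes over temperatures): synchronized HeLa Kyoto cells, proteins quantified by TMT10plex mass spectrometry, three biological replicates, mitosis taken 0.5 h after nocodazole release, G1/S directly after double thymidine block.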

Row | Substance | solubility in G1/S (log2) [1] | melting temperature ([2]; cell cycle stage: G1/S) [°C] | melting temperature ([2]; cell cycle stage: mitosis) [°C] | solubility change mitosis (log2) [3] | thermal stability score [4, 5] | thermal stability score ([4]; cell cycle stage: mitosis)
1 | MDGLLNPRESSKFIAENSRDVFIDSGGVRRVAELLLAKAAGPELRVEGWKALHELNPRAADEAAVNWVFVTDTLNFSFWSEQDEHKCVVRYRGKTYSGYWSLCAAVNRALDEGIPITSASYYATVTLDQVRNILRSDTDVSMPLVEERHRILNETGKILLEKFGGSFLNCVRESENSAQKLMHLVVESFPSYRDVTLFEGKRVSFYKRAQILVADTWSVLEGKGDGCFKDISSITMFADYRLPQVLAHLGALKYSDDLLKKLLKGEMLSYGDRQEVEIRGCSLWCVELIRDCLLELIEQKGEKPNGEINSILLDYYLWDYAHDHREDMKGIPFHRIRCIYY [C9ORF64] | -0.318 | 50.2 | 49.7 | -0.283 | -1.65 | 0.153
2 | MDGTRTSLDIEEYSDTEVQKNQVLTLEEWQDKWVNGKTAFHQEQGHQLLKKHLDTFLKGKSGLRVFFPLCGKAVEMKWFADRGHSVVGVEISELGIQEFFTEQNLSYSEEPITEIPGTKVFKSSSGNISLYCCSIFDLPRTNIGKFDMIWDRGALVAINPGDRKCYADTMFSLLGKKFQYLLCVLSYDPTKHPGPPFYVPHAEIERLFGKICNIRCLEKVDAFEERHKSWGIDCLFEKLYLLTEK [TPMT] | 0.0374 | 54 | 54 | -0.18 | -0.85 | -0.417
3 | MDKLKKVLSGQDTEDRSGLSEVVEASSLSWSTRIKGFIACFAIGILCSLLGTVLLWVPRKGLHLFAVFYTFGNIASIGSTIFLMGPVKQLKRMFEPTRLIATIMVLLCFALTLCSAFWWHNKGLALIFCILQSLALTWYSLSFIPFARDAVKKCFAVCLA [SFT2D2] | 0.0285 | 57.4 | 61.1 | 0.0654 | -0.835 | -0.774
4 | MDKNELVQKAKLAEQAERYDDMAACMKSVTEQGAELSNEERNLLSVAYKNVVGARRSSWRVVSSIEQKTEGAEKKQQMAREYREKIETELRDICNDVLSLLEKFLIPNASQAESKVFYLKMKGDYYRYLAEVAAGDDKKGIVDQSQQAYQEAFEISKKEMQPTHPIRLGLALNFSVFYYEILNSPEKACSLAKTAFDEAIAELDTLSEESYKDSTLIMQLLRDNLTLWTSDTQGDEAEAGEGGEN [YWHAZ] | 0.359 | 54.9 | 54.8 | 0.346 | -3.76 | -3.47
5 | MDLLPPKPKYNPLRNESLSSLEEGASGSTPPEELPSPSASSLGPILPPLPGDDSPTTLCSFFPRMSNLRLANPAGGRPGSKGEPGRAADDGEGIVGAAMPDSGPLPLLQDMNKLSGGGGRRTRVEGGQLGGEEWTRHGSFVNKPTRGWLHPNDKVMGPGVSYLVRYMGCVEVLQSMRALDFNTRTQVTREAISLVCEAVPGAKGATRRRKPCSRPLSSILGRSNLKFAGMPITLTVSTSSLNLMAADCKQIIANHHMQSISFASGGDPDTAEYVAYVAKDPVNQRACHILECPEGLAQDVISTIGQAFELRFKQYLRNPPKLVTPHDRMAGFDGSAWDEEEEEPPDHQYYNDFPGKEPPLGGVVDMRLREGAAPGAARPTAPNAQTPSHLGATLPVGQPVGGDPEVRKQMPPPPPCPGRELFDDPSYVNVQNLDKARQAVGGAGPPNPAINGSAPRDLFDMKPFEDALRVPPPPQSVSMAEQLRGEPWFHGKLSRREAEALLQLNGDFLVRESTTTPGQYVLTGLQSGQPKHLLLVDPEGVVRTKDHRFESVSHLISYHMDNHLPIISAGSELCLQQPVERKL [SHC1] | 0.307 | 52.5 | 52.9 | -0.067 | -1.86 | -2.06
6 | MDLMNGQASSVNIAATASEKSSSSESLSDKGSELKKSFDAVVFDVLKVTPEEYAGQITLMDVPVFKAIQPDELSSCGWNKKEKYSSAPNAVAFTRRFNHVSFWVVREILHAQTLKIRAEVLSHYIKTAKKLYELNNLHALMAVVSGLQSAPIFRLTKTWALLSRKDKTTFEKLEYVMSKEDNYKRLRDYISSLKMTPCIPYLGIYLSDLTYIDSAYPSTGSILENEQRSNLMNNILRIISDLQQSCEYDIPMLPHVQKYLNSVQYIEELQKFVEDDNYKLSLKIEPGTSTPRSAASREDLVGPEVGASPQSGRKSVAAEGALLPQTPPSPRNLIPHGHRKCHSLGYNFIHKMNTAEFKSATFPNAGPRHLLDDSVMEPHAPSRGQAESSTLSSGISIGSSDGSELSEETSWPAFERNRLYHSLGPVTRVARNGYRSHMKASSSAESEDLAVHLYPGAVTIQGVLRRKTLLKEGKKPTVASWTKYWAALCGTQLFYYAAKSLKATERKHFKSTSNKNVSVIGWMVMMADDPEHPDLFLLTDSEKGNSYKFQAGNRMNAMLWFKHLSAACQSNKQQVPTNLMTFE [RALGPS2] | 0.0658 | 51 | 50.5 | -0.165 | -0.455 | -0.819
7 | MDLRVGQRPPVEPPPEPTLLALQRPQRLHHHLFLAGLQQQRSVEPMRLSMDTPMPELQVGPQEQELRQLLHKDKSKRSAVASSVVKQKLAEVILKKQQAALERTVHPNSPGIPYRTLEPLETEGATRSMLSSFLPPVPSLPSDPPEHFPLRKTVSEPNLKLRYKPKKSLERRKNPLLRKESAPPSLRRRPAETLGDSSPSSSSTPASGCSSPNDSEHGPNPILGSEALLGQRLRLQETSVAPFALPTVSLLPAITLGLPAPARADSDRRTHPTLGPRGPILGSPHTPLFLPHGLEPEAGGTLPSRLQPILLLDPSGSHAPLLTVPGLGPLPFHFAQSLMTTERLSGSGLHWPLSRTRSEPLPPSATAPPPPGPMQPRLEQLKTHVQVIKRSAKPSEKPRLRQIPSAEDLETDGGGPGQVVDDGLEHRELGHGQPEARGPAPLQQHPQVLLWEQQRLAGRLPRGSTGDTVLLPLAQGGHRPLSRAQSSPAAPASLSAPEPASQARVLSSSETPARTLPFTTGLIYDSVMLKHQCSCGDNSRHPEHAGRIQSIWSRLQERGLRSQCECLRGRKASLEELQSVHSERHVLLYGTNPLSRLKLDNGKLAGLLAQRMFVMLPCGGVGVDTDTIWNELHSSNAARWAAGSVTDLAFKVASRELKNGFAVVRPPGHHADHSTAMGFCFFNSVAIACRQLQQQSKASKILIVDWDVHHGNGTQQTFYQDPSVLYISLHRHDDGNFFPGSGAVDEVGAGSGEGFNVNVAWAGGLDPPMGDPEYLAAFRIVVMPIAREFSPDLVLVSAGFDAAEGHPAPLGGYHVSAKCFGYMTQQLMNLAGGAVVLALEGGHDLTAICDASEACVAALLGNRVDPLSEEGWKQKPNLNAIRSLEAVIRVHSKYWGCMQRLASCPDSWVPRVPGADKEEVEAVTALASLSVGILAEDRPSEQLVEEEEPMNL [HDAC7] | 0.129 | 53 | 52.3 | 0.0342 | 0.178 | -0.224
8 | MDLWPGAWMLLLLLFLLLLFLLPTLWFCSPSAKYFFKMAFYNGWILFLAVLAIPVCAVRGRNVENMKILRLMLLHIKYLYGIRVEVRGAHHFPPSQPYVVVSNHQSSLDLLGMMEVLPGRCVPIAKRELLWAGSAGLACWLAGVIFIDRKRTGDAISVMSEVAQTLLTQDVRVWVFPEGTRNHNGSMLPFKRGAFHLAVQAQVPIVPIVMSSYQDFYCKKERRFTSGQCQVRVLPPVPTEGLTPDDVPALADRVRHSMLTVFREISTDGRGGGDYLKKPGGGG [AGPAT1] | -0.318 | 53.3 | 52.7 | 0.0448 | 0.708 | 0.125
9 | MDMGNQHPSISRLQEIQKEVKSVEQQVIGFSGLSDDKNYKKLERILTKQLFEIDSVDTEGKGDIQQARKRAAQETERLLKELEQNANHPHRIEIQNIFEEAQSLVREKIVPFYNGGNCVTDEFEEGIQDIILRLTHVKTGGKISLRKARYHTLTKICAVQEIIEDCMKKQPSLPLSEDAHPSVAKINFVMCEVNKARGVLIALLMGVNNNETCRHLSCVLSGLIADLDALDVCGRTEIRNYRREVVEDINKLLKYLDLEEEADTTKAFDLRQNHSILKIEKVLKRMREIKNELLQAQNPSELYLSSKTELQGLIGQLDEVSLEKNPCIREARRRAVIEVQTLITYIDLKEALEKRKLFACEEHPSHKAVWNVLGNLSEIQGEVLSFDGNRTDKNYIRLEELLTKQLLALDAVDPQGEEKCKAARKQAVRLAQNILSYLDLKSDEWEY [BAG5] | 0.621 | 49.6 | 50.4 | -0.166 | 1.27 | 1.14
10 | MDN1 | -0.665 | 51.1 | 50.5 | 0.182 | 0.349 | 1.35
11 | MDNMSITNTPTSNDACLSIVHSLMCHRQGGESETFAKRAIESLVKKLKEKKDELDSLITAITTNGAHPSKCVTIQRTLDGRLQVAGRKGFPHVIYARLWRWPDLHKNELKHVKYCQYAFDLKCDSVCVNPYHYERVVSPGIDLSGLTLQSNAPSSMMVKDEYVHDFEGQPSLSTEGHSIQTIQHPPSNRASTETYSTPALLAPSESNATSTANFPNIPVASTSQPASILGGSHSEGLLQIASGPQPGQQQNGFTGQPATYHHNSTTTWTGSRTAPYTPNLPHHQNGHLQHHPPMPPHPGHYWPVHNELAFQPPISNHPAPEYWCSIAYFEMDVQVGETFKVPSSCPIVTVDGYVDPSGGDRFCLGQLSNVHRTEAIERARLHIGKGVQLECKGEGDVWVRCLSDHAVFVQSYYLDREAGRAPGDAVHKIYPSAYIKVFDLRQCHRQMQQQAATAQAAAAAQAAAVAGNIPGPGSVGGIAPAISLSAAAGIGVDDLRRLCILRMSFVKGWGPDYPRQSIKETPCWIEIHLHRALQLLDEVLHTMPIADPQPLD [SMAD4] | -0.0138 | 51.3 | 50.9 | -0.03 | 0.424 | 0.695
12 | MDNSGKEAEAMALLAEAERKVKNSQSFFSGLFGGSSKIEEACEIYARAANMFKMAKNWSAAGNAFCQAAQLHLQLQSKHDAATCFVDAGNAFKKADPQEAINCLMRAIEIYTDMGRFTIAAKHHISIAEIYETELVDIEKAIAHYEQSADYYKGEESNSSANKCLLKVAGYAALLEQYQKAIDIYEQVGTNAMDSPLLKYSAKDYFFKAALCHFCIDMLNAKLAVQKYEELFPAFSDSRECKLMKKLLEAHEEQNVDSYTESVKEYDSISRLDQWLTTMLLRIKKTIQGDEEDLR [NAPA] | 0.324 | 51.7 | 52.2 | 0.0471 | -0.447 | -0.81
13 | MDPFLVLLHSVSSSLSSSELTELKFLCLGRVGKRKLERVQSGLDLFSMLLEQNDLEPGHTELLRELLASLRRHDLLRRVDDFEAGAAAGAAPGEEDLCAAFNVICDNVGKDWRRLARQLKVSDTKIDSIEDRYPRNLTERVRESLRIWKNTEKENATVAHLVGALRSCQMNLVADLVQEVQQARDLQNRSGAMSPMSWNSDASTSEAS [FADD] | -0.257 | 52.3 | 49.4 | -0.0735 | -0.0741 | 1.4
14 | MDPGDDWLVESLRLYQDFYAFDLSGATRVLEWIDDKGVFVAGYESLKKNEILHLKLPLRLSVKENKGLFPERDFKVRHGGFSDRSIFDLKHVPHTRLLVTSGLPGCYLQVWQVAEDSDVIKAVSTIAVHEKEESLWPRVAVFSTLAPGVLHGARLRSLQVVDLESRKTTYTSDVSDSEELSSLQVLDADTFAFCCASGRLGLVDTRQKWAPLENRSPGPGSGGERWCAEVGSWGQGPGPSIASLGSDGRLCLLDPRDLCHPVSSVQCPVSVPSPDPELLRVTWAPGLKNCLAISGFDGTVQVYDATSWDGTRSQDGTRSQVEPLFTHRGHIFLDGNGMDPAPLVTTHTWHPCRPRTLLSATNDASLHVWDWVDLCAPR [WDR73] | -0.0335 | 54.8 | 54 | -0.0847 | 0.072 | 0.551
15 | MDPRKVNELRAFVKMCKQDPSVLHTEEMRFLREWVESMGGKVPPATQKAKSEENTKEEKPDSKKVEEDLKADEPSSEESDLEIDKEGVIEPDTDAPQEMGDENAEITEEMMDQANDKKVAAIEALNDGELQKAIDLFTDAIKLNPRLAILYAKRASVFVKLQKPNAAIRDCDRAIEINPDSAQPYKWRGKAHRLLGHWEEAAHDLALACKLDYDEDASAMLKEVQPRAQKIAEHRRKYERKREEREIKERIERVKKAREEHERAQREEEARRQSGAQYGSFPGGFPGGMPGNFPGGMPGMGGGMPGMAGMPGLNEILSDPEVLAAMQDPEVMVAFQDVAQNPANMSKYQSNPKVMNLISKLSAKFGGQA [ST13] | 0.813 | 51.8 | 51.3 | 0.103 | 2.23 | 1.79
